B1: F1*; the commonest letter at each place (parent)
chain: GAGACCGCAACTGAAAAGTTGTTATCACTTGTCGTAAGACACTTTGGATGGGTTGAAGTTCTGCACGTAGAAGCAAAAGGC

The variants in this data set derive from B1. Description: fraction ligated after 30 min (ligated reads / total reads); higher = more ligase activity. Conditions: with F1*sub RNA substrate (template-directed ligation), 42 °C. The method, boiled down: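 Ligase ribozyme variants were made from oligo-pool templates by PCR amplification, T7 transcription and gel purification. After gel separation, ligated and unligated bands were reverse transcribed with barcoded primers and sequenced on a MiSeq, with core bases filtered at quality ≥20. The fraction ligated for each variant was the number of ligated reads divided by total reads.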
With GAGACCGCAACTGAAAAGTTGTTATCACTTGTCGTAGGACACTTTGGATGGGTTGATGTTCTGCACGTAGAAGCAAAAGGC [A37G A57T], the fraction ligated turned out to be 0.823.

On to GAGACCGCAACTGAAAAGTTGTTATCACTTGTCGTATGGCACTTTGGATGGGTTGAAGTTCTGCACGTAGAAGCAAAAGGC [A37T A39G], for which the fraction ligated came to 0.837.

Consider GAGACCGCAACTGAAAAGTTGTTATCACTTGTCGTATGTCACTTTGGATGGGTTGAAGTTCTGCACGTAGAAGCAAAAGGC [A37T A39T], for which the fraction ligated was found to be 0.831.

Regarding GAGACCGCAACTGAAAAGTTGTTATCACTTGTCGTATGCCACTTTGGATGGGTTGAAGTTCTGCACGTAGAAGCAAAAGGC [A37T A39C], the fraction ligated came out at 0.785.

Regarding GAGACCGCAACTGAAAAGTTGTTATCACTTGTCGTATGACACTTTGGATTGGTTGAAGTTCTGCACGTAGAAGCAAAAGGC [A37T G50T], the fraction ligated came to 0.793.

With GAGACCGCAACTGAAAAGTTGTTATCACTTGTCGTATGACACTTTGGATCGGTTGAAGTTCTGCACGTAGAAGCAAAAGGC [A37T G50C], the fraction ligated was found to be 0.388.

On to GAGACCGCAACTGAAAAGTTGTTATCACTTGTCGTATGACACTTTGGATAGGTTGAAGTTCTGCACGTAGAAGCAAAAGGC [A37T G50A], for which the fraction ligated was 0.602.

Consider GAGACCGCAACTGAAAAGTTGTTATCACTTGTCGTATTACACTTTGGATGGGTTGAAGTTCTGCACGTAGAAGCAAAAGGC [A37T G38T], for which the fraction ligated was 0.838.

For the variant GAGACCGCAACTGAAAAGTTGTTATCACTTGTCGTATCACACTTTGGATGGGTTGAAGTTCTGCACGTAGAAGCAAAAGGC [A37T G38C], the fraction ligated was determined as 0.841.

For the variant GAGACCGCAACTGAAAAGTTGTTATCACTTGTCGTATAACACTTTGGATGGGTTGAAGTTCTGCACGTAGAAGCAAAAGGC [A37T G38A], the fraction ligated amounted to 0.827.

For the variant GAGACCGCAACTGAAAAGTTGTTATCACTTGTCGTATGACCCTTTGGATGGGTTGAAGTTCTGCACGTAGAAGCAAAAGGC [A37T A41C], the fraction ligated amounted to 0.785.

With GAGACCGCAACTGAAAAGTTGTTATCACTTGTCGTATGACGCTTTGGATGGGTTGAAGTTCTGCACGTAGAAGCAAAAGGC [A37T A41G], the fraction ligated stood at 0.799.

Take GAGACCGCAACTGAAAAGTTGTTATCACTTGTCGTATGACTCTTTGGATGGGTTGAAGTTCTGCACGTAGAAGCAAAAGGC [A37T A41T]: the fraction ligated was found to be 0.815.

As to GAGACCGCAACTGAAAAGTTGTTATCACTTGTCGTATGACACTTTGGGTGGGTTGAAGTTCTGCACGTAGAAGCAAAAGGC [A37T A48G], the fraction ligated worked out at 0.804.

On to GAGACCGCAACTGAAAAGTTGTTATCACTTGTCGTATGACACTTTGGCTGGGTTGAAGTTCTGCACGTAGAAGCAAAAGGC [A37T A48C], for which the fraction ligated amounted to 0.763.

As to GAGACCGCAACTGAAAAGTTGTTATCACTTGTCGTATGACACTTTGGTTGGGTTGAAGTTCTGCACGTAGAAGCAAAAGGC [A37T A48T], the fraction ligated amounted to 0.675.

Consider GAGACCGCAACTGAAAAGTTGTTATCACTTGTCGTATGACACTTTGAATGGGTTGAAGTTCTGCACGTAGAAGCAAAAGGC [A37T G47A], for which the fraction ligated was determined as 0.806.

In the case of GAGACCGCAACTGAAAAGTTGTTATCACTTGTCGTATGACACTTTGCATGGGTTGAAGTTCTGCACGTAGAAGCAAAAGGC [A37T G47C], the fraction ligated came to 0.178.

Take GAGACCGCAACTGAAAAGTTGTTATCACTTGTCGTATGACACTTTGTATGGGTTGAAGTTCTGCACGTAGAAGCAAAAGGC [A37T G47T]: the fraction ligated was found to be 0.346.

Regarding GAGACCGCAACTGAAAAGTTGTTATCACTTGTCGTAGGACACTATGGATGGGTTGAAGTTCTGCACGTAGAAGCAAAAGGC [A37G T44A], the fraction ligated came to 0.839.

As for GAGACCGCAACTGAAAAGTTGTTATCACTTGTCGTAGGACACTCTGGATGGGTTGAAGTTCTGCACGTAGAAGCAAAAGGC [A37G T44C], the fraction ligated was 0.869.

Consider GAGACCGCAACTGAAAAGTTGTTATCACTTGTCGTAGGACACTGTGGATGGGTTGAAGTTCTGCACGTAGAAGCAAAAGGC [A37G T44G], for which the fraction ligated amounted to 0.85.

For GAGACCGCAACTGAAAAGTTGTTATCACTTGTCGTAGGAAACTTTGGATGGGTTGAAGTTCTGCACGTAGAAGCAAAAGGC [A37G C40A], the fraction ligated was 0.807.

Take GAGACCGCAACTGAAAAGTTGTTATCACTTGTCGTAGGAGACTTTGGATGGGTTGAAGTTCTGCACGTAGAAGCAAAAGGC [A37G C40G]: the fraction ligated stood at 0.829.

Take GAGACCGCAACTGAAAAGTTGTTATCACTTGTCGTAGGATACTTTGGATGGGTTGAAGTTCTGCACGTAGAAGCAAAAGGC [A37G C40T]: the fraction ligated stood at 0.854.

On to GAGACCGCAACTGAAAAGTTGTTATCACTTGTCGTATGAAACTTTGGATGGGTTGAAGTTCTGCACGTAGAAGCAAAAGGC [A37T C40A], for which the fraction ligated came to 0.809.

As to GAGACCGCAACTGAAAAGTTGTTATCACTTGTCGTATGAGACTTTGGATGGGTTGAAGTTCTGCACGTAGAAGCAAAAGGC [A37T C40G], the fraction ligated amounted to 0.82.

With GAGACCGCAACTGAAAAGTTGTTATCACTTGTCGTATGATACTTTGGATGGGTTGAAGTTCTGCACGTAGAAGCAAAAGGC [A37T C40T], the fraction ligated worked out at 0.842.

Turning to GAGACCGCAACTGAAAAGTTGTTATCACTTGTCGTAGGACATTTTGGATGGGTTGAAGTTCTGCACGTAGAAGCAAAAGGC [A37G C42T], the fraction ligated stood at 0.857.

Turning to GAGACCGCAACTGAAAAGTTGTTATCACTTGTCGTAGGACAGTTTGGATGGGTTGAAGTTCTGCACGTAGAAGCAAAAGGC [A37G C42G], the fraction ligated was 0.857.

As to GAGACCGCAACTGAAAAGTTGTTATCACTTGTCGTAGGACAATTTGGATGGGTTGAAGTTCTGCACGTAGAAGCAAAAGGC [A37G C42A], the fraction ligated turned out to be 0.859.

Turning to GAGACCGCAACTGAAAAGTTGTTATCACTTGTCGTAGGACACTTTGGATGGGTTCAAGTTCTGCACGTAGAAGCAAAAGGC [A37G G55C], the fraction ligated turned out to be 0.833.

On to GAGACCGCAACTGAAAAGTTGTTATCACTTGTCGTAGGACACTTTGGATGGGTTAAAGTTCTGCACGTAGAAGCAAAAGGC [A37G G55A], for which the fraction ligated came out at 0.846.

Take GAGACCGCAACTGAAAAGTTGTTATCACTTGTCGTAGGACACTTTGGATGGGTTTAAGTTCTGCACGTAGAAGCAAAAGGC [A37G G55T]: the fraction ligated came out at 0.834.

The values are drawn from the supplement of paper PMC6755084.
